Test results as given in patent US20220064329A1 (Novo Nordisk, published 2022).
Residue numbers refer to the chain shown, from its start.

T1: recombinant human activated Factor VII (FVIIa) (human, UniProt P08709 61-212; P08709 213-466, Gla domain: ten glutamate residues may be gamma-carboxylated)
T1 construct: two-chain form after cleavage between Arg152 and Ile153; light chain (Gla, EGF domains) and heavy chain (protease domain) tethered by a disulfide bond; also called rFVIIa; human FVIIa
T1 sequence 1: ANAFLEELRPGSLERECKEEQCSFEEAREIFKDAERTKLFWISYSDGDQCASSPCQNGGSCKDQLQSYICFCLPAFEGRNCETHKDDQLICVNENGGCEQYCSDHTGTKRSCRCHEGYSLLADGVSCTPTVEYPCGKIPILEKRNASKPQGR
T1 sequence 2: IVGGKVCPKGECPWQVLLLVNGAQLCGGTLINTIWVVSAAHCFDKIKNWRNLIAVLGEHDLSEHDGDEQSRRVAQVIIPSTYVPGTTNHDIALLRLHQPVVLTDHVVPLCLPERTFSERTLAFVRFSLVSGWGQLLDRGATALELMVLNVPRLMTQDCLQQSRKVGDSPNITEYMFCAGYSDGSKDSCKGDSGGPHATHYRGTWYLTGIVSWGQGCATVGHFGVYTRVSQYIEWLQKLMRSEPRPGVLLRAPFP

T2: recombinant human activated Factor VII (FVIIa) (human, UniProt P08709 61-212; P08709 213-466, ten glutamate residues of the Gla domain may be gamma-carboxylated)
T2 sequence 1: T1 sequence 1
T2 sequence 2: T1 sequence 2

B1: mAb0124 (antibody, human IgG4 S228P, kappa, V domains shown)
VH: DVQLQESGPGLVEPSQTLSLTCTVSGYSITSDSAWSWIRQFPGKKLEWMGYIQYSGSTNYNPSLKSRVTISRDTSKNQFSLKLSSVTAEDTAVYYCARSVNYYGNSFAVGYWGQGTSVTVSS
VL: EIVLTQSPATLSLSPGERATLSCRASQGISDYLHWYQQKPGQAPRLLIKYTSQPATGIPARFSGSGSGTDFTLTISSLEPEDVGVYYCQNGHSFPLTFGAGTKLELKR
notes: humanized 11F2 variant, first round
B2: mAb0126 (antibody, human IgG4 S228P, kappa, V domains shown)
VH: B1 VH
VL: B1 VL with I29V, Q42E
notes: as for B1
B3: mAb0130 (antibody, human IgG4 S228P, kappa, V domains shown)
VH: B1 VH
VL: B1 VL with Q42E, V83F
notes: as for B1
B4: mAb0122 (antibody, human IgG4 S228P, kappa)
heavy: not shown
light: EIVLTQSPATLSLSPGERATLSCRASQGISDYLHWYQQKPGEAPRLLIKYTSQPATGIPARFSGSGSGTDFTLTISSLEPEDVGVYYCQNGHSFPLTFGQGTKLELKRTVAAPSVFIFPPSDEQLKSGTASVVCLLNNFYPREAKVQWKVDNALQSGNSQESVTEQDSKDSTYSLSSTLTLSKADYEKHKVYACEVTHQGLSSPVTKSFNRGEC
notes: as for B1
B5: mAb0128 (antibody, human IgG4 S228P, kappa, V domains shown)
VH: B1 VH
VL: B1 VL with P15A, P40S, Q42E
notes: as for B1
B6: mAb0125 (antibody, human IgG4 S228P, kappa, V domains shown)
VH: B1 VH
VL: B1 VL with Q42E, G84A
notes: as for B1
B7: mAb0123 (antibody, human IgG4 S228P, kappa, V domains shown)
VH: B1 VH
VL: B1 VL with D31S, Q42E
notes: as for B1
B8: mAb0129 (antibody, human IgG4 S228P, kappa, V domains shown)
VH: B1 VH
VL: B1 VL with Q42E, T51A
notes: as for B1
B9: mAb0709(OA) (antibody, human IgG4 S228P, kappa)
heavy: QVQLQESGPGLVKPSQTLSLTCTVSGYSISSDSAWSWIRQPPGKGLEWIGYIQYSGSTNYNPSLKSRVTISRDTSKNQFSLKLSSVTAADTAVYYCARSVNYYGNSFAVGPWGQGTLVTVSSASTKGPSVFPLAPCSRSTSESTAALGCLVKDYFPEPVTVSWNSGALTSGVHTFPAVLQSSGLYSLSSVVTVPSSSLGTKTYTCNVDHKPSNTKVDKRVESKYGPPCPPCPAPEFLGGPSVFLFPPKPKDTLMISRTPEVTCVVVDVSQEDPEVQFNWYVDGVEVHNAKTKPREEQFNSTYRVVSVLTVLHQDWLNGKEYKCKVSNKGLPSSIEKTISKAKGQPREPQVYTLPPSQEEMTKNQVSLSCAVKGFYPSDIAVEWESNGQPENNYKTTPPVLDSDGSFFLVSRLTVDKSRWQEGNVFSCSVMHEALHNHYTQKSLSLSLGK
light: B4 light with V83F, G84A, L106I
chain: not shown
notes: one-armed (OA) antibody, constant domain type F (knob-in-hole)
B10: mAb0077(OA) (antibody, human IgG4 S228P, kappa)
heavy: not shown
light: DIVMTQSPATLSVTAGDRVSLSCRASQGISDYLHWYQQKSHESPRLLIKYTSQPVSGIPSRFSGSGSGSEFTLSINSVEPEDVGVYYCQNGHSFPLTFGAGTKLELKRTVAAPSVFIFPPSDEQLKSGTASVVCLLNNFYPREAKVQWKVDNALQSGNSQESVTEQDSKDSTYSLSSTLTLSKADYEKHKVYACEVTHQGLSSPVTKSFNRGEC
chain: VESKYGPPCPPCPAPEFLGGPSVFLFPPKPKDTLMISRTPEVTCVVVDVSQEDPEVQFNWYVDGVEVHNAKTKPREEQFNSTYRVVSVLTVLHQDWLNGKEYKCKVSNKGLPSSIEKTISKAKGQPREPQVYTLPPSQEEMTKNQVSLTCLVKGFYPSDIAVEWESNGQPENNYKTTPPVLDSDGSFLLYSKLTVDKSRWQEGNVFSCSVMHEALHNHYTQKSLSLSLGK
notes: one-armed (OA) antibody, constant domain type E (Duobody); murine VL/VH; also called monovalent 11F2
B11: mAb0099(OA) (antibody, human IgG4 S228P, kappa)
heavy: DVQLQESGPGLVEPSQSLSLTCTVTGYSITSDSAWSWIRQFPGNKLEWMGYIQYSGSTNYNPSLKSRISVTRDTSKNQFFLRLSSVTAEDTATYYCTRSVNYYGNSFAVGYWGQGTSVTVSSASTKGPSVFPLAPCSRSTSESTAALGCLVKDYFPEPVTVSWNSGALTSGVHTFPAVLQSSGLYSLSSVVTVPSSSLGTKTYTCNVDHKPSNTKVDKRVESKYGPPCPPCPAPEFLGGPSVFLFPPKPKDTLMISRTPEVTCVVVDVSQEDPEVQFNWYVDGVEVHNAKTKPREEQFNSTYRVVSVLTVLHQDWLNGKEYKCKVSNKGLPSSIEKTISKAKGQPREPQVYTLPPSQEEMTKNQVSLSCAVKGFYPSDIAVEWESNGQPENNYKTTPPVLDSDGSFFLVSRLTVDKSRWQEGNVFSCSVMHEALHNHYTQKSLSLSLGK
light: B10 light
chain: not shown
B12: mAb0138(OA) (antibody, human IgG4 S228P, kappa)
heavy: not shown
light: B4 light with Q100A
chain: B10 chain
notes: one-armed (OA) antibody, constant domain type E
B13: mAb0141(OA) (antibody, human IgG4 S228P, kappa)
heavy: not shown
light: B4 light with Q100A
chain: B10 chain
notes: as for B12
B14: mAb0142(OA) (antibody, human IgG4 S228P, kappa)
heavy: not shown
light: B4 light with D31S, Q100A
chain: B10 chain
notes: as for B12
B15: mAb0143(OA) (antibody, human IgG4 S228P, kappa)
heavy: not shown
light: B4 light with V83F, Q100A
chain: B10 chain
notes: as for B12
B16: mAb0140(OA) (antibody, human IgG4 S228P, kappa)
heavy: not shown
light: B4 light with Q100A
chain: B10 chain
notes: as for B12
B17: biAb0001 (bispecific antibody, human IgG4 S228P, kappa)
heavy 1: B9 heavy with P111Y, S368T, A370L, F407L, V409Y, R411K
light 1: B4 light with V83F, G84A, L106I
heavy 2: not shown
light 2: DIVMTQTPLSSPVTLGQPASISCRSSQSLVHRQGNTYFHWLQQRPGQPPRLLIYKVSNRFSGVPDRFSGSGAGTDFTLKISRVEAEDVGVYYCSQSTHVPYTFGQGTKLEIKRTVAAPSVFIFPPSDEQLKSGTASVVCLLNNFYPREAKVQWKVDNALQSGNSQESVTEQDSKDSTYSLSSTLTLSKADYEKHKVYACEVTHQGLSSPVTKSFNRGEC
notes: also called anti-FVII(a)/anti-TLT-1 bispecific antibody of mAb0865 and mAb1076
B18: biAb0245 (bispecific antibody, human IgG4 S228P, kappa)
heavy 1: B9 heavy with Q1D, A108W, G110D, S368T, A370L, F407L, V409Y, R411K
light 1: B10 light
heavy 2: not shown
light 2: B17 light 2
notes: also called anti-FVII(a)/anti-TLT-1 bispecific antibody of mAb0873 and mAb1076

biological target: T1, recombinant human activated Factor VII …; test: Bio-Layer Interferometry (Fortebio), antibody on anti-human tips, FVIIa 25-200 nM
Method: All steps were performed in running buffer (20 mM HEPES buffer (pH 7.4), 150 mM NaCl, 5 mM CaCl2, 0.03% Tween 20, 1 mg/ml IgG-free BSA) at […] Antibodies were captured on anti-human tips (AHC, Fortebio) for 3 min at a concentration of 10 ug/ml. This was followed by a 3 min incubation to establish a baseline. Following this, association was monitored for 3 min using four different concentrations of VIIa (25 nm, 50 nM, 100 nM, and 200 nM), followed by a 3 mi dissociation. Sensorgrams were analysed using Fortebio data analysis software.

Kd | Binder
1.8 nM | B1
2.5 nM | B2
1.8 nM | B3
1.7 nM | B4
1.7 nM | B5
1.7 nM | B6
5.8 nM | B7
2.2 nM | B8

biological target: T2, recombinant human activated Factor VII …; test: cell-based or functional assay

AT inhibition (kinh %) | TGT activity (%% FVIIa) | Binder
137% | 103% | B9
119% | 103% | B10
117% | 98% | B11
105% | 99% | B12
109% | 103% | B13
114% | 106% | B14
109% | 107% | B15
106% | 100% | B16

biological target: T2, recombinant human activated Factor VII …; test: SPR (Biacore)

Kd | Binder
0.104 nM | B9
0.06 nM | B17
0.041 nM | B10
0.12 nM | B11
0.13 nM | B12
600 nM | B18
0.078 nM | B13
1 nM | B14
0.079 nM | B15
0.083 nM | B16
